This note sets out measurements from patent US7419667B2, “Drug for cancer therapy” (Morinaga Milk Industry Co. Ltd., priority 2004, dated 2008).

The data set relates to human Burkitt lymphoma Raji cells. The data set can be described thus: Test Example 1: cytotoxic action of complement and antibody drug (rituximab) with sample added, PI method. As to conditions: for Cytotoxic activity (%): 100 μl/well of 1000 μg/ml sample, 1 hour, PI. It is filed as cell-based. How it is done:
Test Sample 1 was prepared with the lactoferrin hydrolysate mixture prepared in Preparation Example 1, of which concentration was adjusted to 1000 μg/ml in RPMI 1640 medium (Sigma, catalog number: R8758) containing 7.5% fetal bovine serum (Gibco, catalog number: 10099-141) and 1% penicillin-streptomycin (Gibco, catalog number: 15070-063) [henceforth this solution is referred to as “dilution solution”]. Furthermore, Control Sample 1 was prepared by diluting lactoferrin to a concentration of 1000 μg/ml with the dilution solution.
As target cells for measurement of cytotoxic action of complement and antibody drug, human Burkitt lymphoma Raji cells (ATCC CCL-86, obtained from American Type Culture Collection (10801 University Boulevard, Manassas, Va. 20110-2209, USA)) were used, and the cells were suspended at a density of 2×10^6 cells/ml by using the dilution solution to prepare a Raji cell suspension. As an antibody drug solution, rituximab (Zenyaku Kogyo, sold by Nippon Roche) that recognizes the CD20 antigen was used, and it was prepared at a concentration of 200 μg/ml using the dilution solution. As a complement solution, Human serum AB (Cosmobio, catalog number: 832000027) was used. These antibody drug solution and complement solution were also used for Test Examples 2 to 5 described below.
Viability determination of the cells was performed by the method using propidium iodide (PI, Dojindo, catalog number: P378) [Cytometry, Vol. 8, No. 4, pp. 421-426, 1987] or the method using Calcein-AM (Dojindo, catalog number: 341-07901) [Apoptosis, Vol. 3, No. 3, pp. 195-202, 1998].
The Raji cell suspension was added to each well of a 24-well culture plate (NUNC, catalog number: 143982) in a volume of 100 μl each (2×10^5 cells each). The 24 wells were divided into four groups, to wells (6 wells) of one group among them, 50 μl/well of the antibody drug solution and 250 μl/well of dilution solution were added as “Addition of antibody drug”. Further, to wells (6 wells) of another group, 100 μl of the complement solution and 200 μl of the dilution solution were added as “Addition of complement”. Furthermore, to wells (6 wells) of another group, 50 μl of the antibody drug solution, 100 μl of the complement solution and 150 μl of the dilution solution were added as “Addition of antibody drug+complement”. To wells (6 wells) of the remaining one group, 300 μl of the dilution solution was added as “No addition”.
For the aforementioned four groups, 100 μl/well of Test Sample 1 (4 groups×2 wells), Control Sample 1 (4 groups×2 wells) or the dilution solution (4 groups×2 wells) mentioned above was added as “Test Sample Group 1”, “Control Sample Group 1” and “Negative Sample Group 1”, respectively.
By using the 24-well plate prepared as described above, the cells were cultured under the conditions of 37° C. and 5% carbon dioxide (CO2) for 1 hour using an incubator (Napco, catalog number: 5300). Then, the cells of each sample group were collected, and the rate of dead cells in each was examined by the aforementioned method using PI. Cytotoxic activity was calculated based on a case where all the target cells were killed, which was taken as 100%.

B1: Control Sample Group 1: Undecomposed commercially available bovine lactoferrin (Morinaga Milk Industry Co., Ltd.) used as control (protein, listed as Bos taurus)
chain: MKLFVPALLSLGALGLCLAAPRKNVRWCTISQPEWFKCRRWQWRMKKLGAPSITCVRRAFALECIRAIAEKKADAVTLDGGMVFEAGRDPYKLRPVAAEIYGTKESPQTHYYAVAVVKKGSNFQLDQLQGRKSCHTGLGRSAGWIIPMGILRPYLSWTESLEPLQGAVAKFFSASCVPCIDRQAYPNLCQLCKGEGENQCACSSREPYFGYSGAFKCLQDGAGDVAFVKETTVFENLPEKADRDQYELLCLNNSRAPVDAFKECHLAQVPSHAVVARSVDGKEDLIWKLLSKAQEKFGKNKSRSFQLFGSPPGQRDLLFKDSALGFLRIPSKVDSALYLGSRYLTTLKNLRETAEEVKARYTRVVWCAVGPEEQKKCQQWSQQSGQNVTCATASTTDDCIVLVLKGEADALNLDGGYIYTAGKCGLVPVLAENRKSSKHSSLDCVLRPTEGYLAVAVVKKANEGLTWNSLKDKKSCHTAVDRTAGWNIPMGLIVNQTGSCAFDEFFSQSCAPGADPKSRLCALCAGDDQGLDKCVPNSKEKYYGYTGAFRCLAEDVGDVAFVKNDTVWENTNGESTADWAKNLNREDFRLLCLDGTRKPVTEAQSCHLAVAPNHAVVSRSDRAAHVKQVLLHQQALFGKNGKNCPDKFCLFKSETKNLLFNDNTECLAKLGGRPTYEEYLGTEYVTAIANLKKCSTSPLLEACAFLTR
modifications: sig_peptide (1)...(19) Lactoferrin
In the case of B1, the “change of cytotoxic activity compared with the negative sample group” value (Addition of antibody drug + complement) was “did not increase”. Besides, the “Cytotoxic activity (%)” value by setting is: (Addition of antibody drug + complement (rituximab, human serum AB)) 24.3%; (Addition of antibody drug only) 1.0%; (Addition of complement only) 1.2%; (No addition (no antibody drug, no complement)) 1.0%.
